Assay results published in publication PMC5587573.

Molecular target: T1, Escherichia coli trigger factor (Escherichia coli), P0A850
T1 chain: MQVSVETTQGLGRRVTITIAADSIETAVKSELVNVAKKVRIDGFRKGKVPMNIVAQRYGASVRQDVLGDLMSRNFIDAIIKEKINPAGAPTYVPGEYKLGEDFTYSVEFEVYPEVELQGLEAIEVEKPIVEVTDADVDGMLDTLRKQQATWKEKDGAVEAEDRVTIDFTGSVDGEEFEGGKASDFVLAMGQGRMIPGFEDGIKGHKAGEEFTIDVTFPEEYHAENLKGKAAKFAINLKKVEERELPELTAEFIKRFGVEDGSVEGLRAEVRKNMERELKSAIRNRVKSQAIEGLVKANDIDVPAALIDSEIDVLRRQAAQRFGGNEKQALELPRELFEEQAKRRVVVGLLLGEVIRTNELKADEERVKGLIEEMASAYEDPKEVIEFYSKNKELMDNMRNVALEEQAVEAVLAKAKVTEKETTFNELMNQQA
Test: SAXS (static); five to eight protein concentrations; 20 mM Tris pH 7.5, 150 mM KCl; 20 °C; BM29 beamline, ESRF; self-association
Details: remark: other sources report otherwise

stoichiometry N: 2
B1: Escherichia coli trigger factor, P0A850 1-432 (natural protein)
chain: T1 chain
